Assay results published in paper PMC7448930.

Target: HCoV-19 fusion core (HR1 and HR2 linked with a peptide linker) (HCoV-19)
Assay: crystal structure; HR1 and HR2 linked on one chain by a peptide linker; 1.5 Å; one HR1/HR2 complex in the asymmetric unit, trimer by symmetry operations

Question: With “HCoV-19 fusion core (HR1 and HR2 linked with a peptide linker) (domain or fragment)” as the substance, how does the stoichiometry N read?
Answer: The stoichiometry N was 3.
